Article PMC9563779 (2022)

Target: extracellular domain of p95HER2 peptide with a poly-histidine-tag in the C-terminus (human)
Assay: SPR

koff: 0.00893 s⁻¹
B1: Oslo-2 mAb (antibody, V domains shown)
VH: EVQILETGGGLVKPGGSLRLSCATSGFNFNDYFMNWVRQAPGKGLEWIAQIRNKNYNYATYFAESLEGRFTISRDDSKSSVYLQVNSLRAEDTALYYCTELRYDYWGQGVMVTVSS
VL: DIVMTQSPFSLAVSEGEMVTINCKSSQSLLSSGNQKNNLAWYQQKPGQSPKLLIYYASTRQSGVPDRFIGSGSGTDFTLTISDVQAEDLADYYCLQHYSSPYTFGAGTKLELK
